Reference: the DeepSol protein solubility set

Assay: soluble on expression in E. coli; label from the status in PepcDB or PDB records
For “MKFTEGKVKVVANDVKNLTQALEGYIQKAFFEGKDICASGGLVLKTTNKLAQKLSELKEILPQVKVISDEVKAKAEEIIKKAEETLQKGLEIKKRVKEFEAATNVYKKNPSEENKKRVETALNNLKYPEGAKLTLEDYVKNCNPYKKYLQKRVEQKA”, the “soluble on expression in E. coli” value was “not soluble”. In the case of “MMRGGMGNMNNMMKQMQKMQKEMAKAQEELGEKTVEGTAGGGMITVIANGHKQILEVKVKEEVVDPEDIEMLQDLVLAATNDALKKADELSNSTMGKFTKGLNLPGGMF”, the “soluble on expression in E. coli” value is reported as “soluble”. For “MVIKFSSNTTNPPTMIYMGVDKVENEDLIKYGWPEDVWFHVDKLSSAHVYLRLHSGMTIDSIPEALLIDCCQLVKQNSIEGCKLNNVAIVYTMWSNLKKTGDMAVGQVGFHSHKQVKHTVVPTKINEIVNRLEKTRRKDDIDYKEERDARDAKERQKLKKLEQERKDREKKEMLAQNEKKRIEGYEDVDWDAGATTRNDVDPGNLSDDFM”, the “soluble on expression in E. coli” value was “not soluble”. In the case of “MEFTGDLGLGHVTIRASTSSNIRSEVLMEGEYGFIGKSIPTDNPAGQRIIFCGGEGTSSTTGAQITLYGANNTDSRRIVYNGDEHLFQSADVKPYNDNVTALGGPSNRFTTAYLGSNPIVTANGERKTEPVVFDDAFLDAWGDVHYIMYQWLDAVQLKGNDARIHFGVIAQQIRDVFIAHGLMDENSTNCRYAVLCYDKYPRMTDTVFSHNEIVEHTDEEGNVTTTEEPVYTEVVIHEEGEEWGVRPDGIFFAEAAYQRRKLERIEARLSALEQK”, the “soluble on expression in E. coli” value is reported as “soluble”. In the case of “MGSDKIHHHHHHMKLITFVCAAFLCLPSLAQEKFPDGTPVSDWFKDSKIVDINTLGKKYILTDYGVINDSTLLQTEKIQSAIDAAAQNGGGVIVIPKGTYLSGALFFKPKTHLHLEEGAVLKGSDDISNFPIIDTRMEGQSLKYFAALVNADKVDGFTLSGKGTIDGNGLRYWKSFWLRRKVNPQCTNMDELRPRLVHISHSNNVQLSGVRLINSPFWTTHLYKCNHIKLLNLYIFSPEKPVKAPSTDAIDIDVCSNVLVKNCYMSVNDDAIALKGGKGPWADQDPNNGGNFNIIIEDCTYGFCHGALTCGSESIHNRNIILRRIHITNANRLLWLKMRPDTPQQYEYILVEDITGDADHFLYIKPWTQFFDLKDRKDIPVSYSNHVTMRNIDFKCDNFFSVEKSDQYQLTNFTFENLNIKAKNGECDKEMIDNFIWKKVSINNIK”, the “soluble on expression in E. coli” value is reported as “not soluble”. In the case of “MEENKQRVKSMINILQLVAPGTPLREGIDNVLRAQTGGLIVLGYNEQIKSIVDGGFHINCAFSPASLYELAKMDGALILNETGSKILIANAQLVPDSSIDSIETGMRHRTAERVAKQTGSLVVAISQRRNVITLYQGNLRYTLKDIGVILTKANQAIQTLEKYKAVWNDGITNLGILEFEEVVTMSEVVHVLHSVEMVLRIKNEILSYIHELGTEGRLIRLQLTELLADLEAEAALLIKDYHQEKTQDHHQILKKLQDLANTQLLEDSDLVKLLGYPGQTSLEESVTPRGYRITSKISRVPPLIIENLINRFKTLQGVCRATINELDDVEGIGEVRAKKIREGLKRIQEHLYMSRHN”, the “soluble on expression in E. coli” value is reported as “not soluble”. With “MGSDKIHHHHHHMIDFIISIDDCAVELDSRQSWKIRYPLSTILFLVFVCQLAGIETWKEMEDFIEMNEPLFATYVDLSEGCPSHDTLERVISLVNSDRLKELKVQFEQSLTSLDAVHQLISVDGKTIRGNRGKNQKPVHIVTAYDGGHHLSLGQVAVEEKSNEIVAIPQLLRTIDIRKSIVTIDAMGTQTAIVDTIIKGKADYCLAVKGNQETLYDDIALYFSDVNLLEELQENAQYYQTVEKSRGQIEVREYWVSSDIKWLCQNHPKWHKLRGIGMTRNTIDKDGQLSQENRYFIFSFKPDVLTFANCVRGHWQIESMHWLLDVVYHEDHHQTLDKRAAFNLNLIRKMCLYFLKVMVFPKKDLSYRRKQRYISVHLEDYLVQLFGERG” the “soluble on expression in E. coli” value was “not soluble”. With “MGRIRQTFIKRTGEELIEKFADKFTSDFEENKKAVEEVAMISTKPLRNRIAGYVTAKVKKMNALEHHHHHH” the “soluble on expression in E. coli” value was “not soluble”. In the case of “MGSDKIHHHHHHMRRRHVGVGAELTAFRILAAISCERLFWETGSRNQAVKTRAESANREISMIRTAMIAATALAASLAASAPAFAADVVGLWATPGNGGQVEISRCGNSLCGKLVTSDHIKTNPGLKDIKNKDESQRSRTLKNLQMLYDFSGGPTKWTGGKVYNPEDGGVYAGTIELVSTTELKLKGCVVAPLCKTQKWTRIR”, the “soluble on expression in E. coli” value is reported as “not soluble”. In the case of “MGSDKIHHHHHHMTKITVLSGKGGTGKTTVSVNMAKALSESYRVQLLDADVEEPNDHIFFNVDVSFEEPVHLMIPVVDNSVCIRCGECASTCQFGAISVFPSGTFVFESLCHGCGACSIMCPVNAISERPKEIGKIRFGTADGNISFGMGILNIGERTGVPVIRKLKKHIDEKADVVIVDAPPGTSCPVVESLRNTDFALLVTEPTAFGLHDLKLAVELTKEMGIPSGIVVNRYIPGNTIIEEFADEEGIPVLLKIPFKREIASLCAEGKLIVEAFQDMKKDFLELFEKIEVMVR”, the “soluble on expression in E. coli” value is reported as “not soluble”. For “MIKAILIFNNHGKPRLCKFYQHYSEDTQQQIIRETFHLVSKRDENVCNFLEGGLLIGGSDNKLIYRHYATLYFVFCVDSSESELGILDLIQVFVETLDKCFENVCELDLIFHVDKVHNILAEMVMGGMVLETNMNEIVTQIDA”, the “soluble on expression in E. coli” value was “soluble”. With “MGSDKIHHHHHHMITTSNITMQFGVKPLFEKVSVKFGEGNRYGLIGANGSGKSTFMKILGGDLEQTAGEVAIENGLRLGKLRQDQFGYEDQRVIDVVMMGHTEMWAAMSERDAIYANLEATEDDYMRAADLEAKFAEYDGYTAEARAGELLMGVGIPVEQHFGPMSEVAPGWKLRVLLAQALFSNPDILLLDEPTNNLDINTIRWLEHVLNERNSTMIIISHDRHFLNSVCTHMADLDYNTIRIYPGNYDDYMIASAQARERQLSSNSKAKERIQELQEFVARFSANKSKARQATSRLKQVDKLKSEMVEVKPSSRQNPFIRFEMDDKFKLHRQAVEVEGLSKAYDNKVLFKDLNLILEAGARLAIIGPNGAGKTSLIKLLAGAFEPAYAEGLTADRGTIKWAEKAQIGYFAQDHEADFDSDATLTEWMREWGQEGDDEQVIRGTLGRLLFGGDEVGKPVRVLSGGEKGRMLYGKLILQKPNVMIMDEPTNHMDMESIESLNMALEKYKGTLIFVSHDRQFVSSLATHVLELDGKGGYDYYTGNYEDYLASKGLE” the “soluble on expression in E. coli” value was “not soluble”. For “MTNLELSGSQSYLNDESTANLSSLAGKFLVQFWGVRGLIPTPSSNTSRYGGNTACVEMQVAGKRLIFDGGTGLRILGKAWQHLQQPLEAHLFFTNSQSNRIQGFPFFAPAFIAGNCFHIYGGAASNGASIKQCLCDQMLQPHFPYPLQVMQSELQFYPLTPDSEVKLDDVTIRTALINQTQRSIGYRVTWQEYSVAYVTDLNMSAEQGEREQVLQIIQDVDLLIANATYTPPTSHDHESVDLLWQAAVEMAQKAGVRKLIISHHHPDDHDDFLDQVEKEVQSTFSDALLACEGLALPVFLEHHHHHH”, the “soluble on expression in E. coli” value was “soluble”. In the case of “MATFFLLSAGKAQDRIPACPPLGKTLKMIKPLREMNWANDTIAVQTSFPSAFRETGRDEIIDSIALLTPVFERLRQVRAGLSEDTVRILHIGDSHVRGHIYPQTTGTLLKETFGAVSYTDMGVNGATCLTFTHPGRIADIAAMKPELLILSFGTNESHNRRYNVNLHYNQMDELVKLLRDSLPDVPILLTTPPGSYESFRQRRRKRTYAINPRTVTAAETIRRYAKDHRLLVWDMYDVVGGKRRACTNWTEAKLMRPDHVHYLPEGYILQGNLLYQAIIQAYNDYVSH”, the “soluble on expression in E. coli” value is reported as “not soluble”. With “MCMEKFYKVGTIVNTQGLQGEVRVMPSTDFAQERFSKGSVLALFDDKDNYIQDLKVKSGRPQKNFYVVKFEGFYHINDVEKYKGYIVKIAEENQEDLDDGEFYYHEIIGSDVYENDILIGQISEILQPGANDVWVVKRKGKRDLLLPYIPPVILNVDVNQHRVDVSIMEGLDDLEHHHHHH” the “soluble on expression in E. coli” value was “soluble”. For “DTLANAVYLRLMTPLGGWWADPTLGSRLHELSRSKDSNRIDLLACQYAEQALQPLLQDGRASRVQVSSQRQGPGRLLLNIEVAETGGHIRHFQHQVRI”, the “soluble on expression in E. coli” value was “not soluble”.
